US20150132779A1 (TOKYO METROPOLITAN INSTITUTE OF MEDICAL SCIENCE, published 2015)

Molecular target: T1, ubiquitin monomer (S. cerevisiae (yeast lysate), UniProt P0CG63 1-76)
T1 construct: mature; Endogenous monomer of the yeast lysate, seen by western blot in the pull-down experiment; also called monoubiquitin (free, in yeast lysate)
Experiment: pull-down from yeast lysate with biotinylated TR-TUBE and streptavidin beads, anti-ubiquitin western blot
Protocol: For Ub-ProT assay of yeast extracts, 30 OD₆₀₀ units of log-phase cells were harvested and lysed with glass beads in 300 μl of lysis buffer (50 mM Tris-HCl [pH 7.5], 100 mM NaCl, 10% glycerol, 10 μM MG132, 10 mM iodoacetamide, and 1× complete protease inhibitor cocktail [Roche, EDTA-free]). After centrifugation, the supernatant (100 μg) was incubated with TR-TUBE (10 μg) for 1 h at 4° C. Next, TR-TUBE-bound polyubiquitylated proteins were incubated with Dynabeads MyOne Streptavidin C1 (1 mg, Life Technologies) for 45 min at 4° C. The beads were washed three times with PBS-T, and then incubated in 100 μl of 50 mM AMBC, 0.01% Rapigest SF, and trypsin (1.5 μg) overnight at 37° C. […] After the beads were washed with PBS-T, the polyubiquitin chains were selectively eluted by 30-min incubation with 1× NuPAGE LDS sample buffer. The samples were directly subjected to electrophoresis on NuPAGE gels in order to avoid aggregation of polyubiquitin chains.
The inventors of the present invention next investigated the mean lengths of substrate-attached polyubiquitin chains in yeast lysate. To the knowledge of the inventors of the present invention, the actual chain lengths of polyubiquitylated proteins in vivo have not been previously determined. In this experiment, the inventors of the present invention used a drug-sensitive pdr5 mutant to determine the effect of a proteasome inhibitor, MG132. […]

T1 sequence (P0CG63 1-76 limits assumed): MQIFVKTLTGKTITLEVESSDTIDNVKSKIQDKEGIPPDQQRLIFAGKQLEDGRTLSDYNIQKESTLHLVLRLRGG

B1: trypsin-resistant tandem ubiquitin binding entity (TR-TUBE) (designed binder)
chain: MRGCHHHHHHGMASMTGGQQMGDIGGGGSGGGVNPQLQNPEVAFQQQLEQLSAMGFLNAEANLQALIATGGDINAAIEALLGSQPSGGGGSGGGVNPQLQNPEVAFQQQLEQLSAMGFLNAEANLQALIATGGDINAAIEALLGSQPSGGGGSGGGVNPQLQNPEVAFQQQLEQLSAMGFLNAEANLQALIATGGDINAAIEALLGSQPSGGGGSGGGVNPQLQNPEVAFQQQLEQLSAMGFLNAEANLQALIATGGDINAAIEALLGSQPSGGGGSGGGVNPQLQNPEVAFQQQLEQLSAMGFLNAEANLQALIATGGDINAAIEALLGSQPSGGGGSGGGVNPQLQNPEVAFQQQLEQLSAMGFLNAEANLQALIATGGDINAAIEALLGSQPSGGGGS
modifications: Cys residue upstream of the hexahistidine tag biotinylated with EZ-link Maleimide-PEG2-Biotin
notes: also called 6x TR-TUBE; biotinylated TR-TUBE
B1: no binding.
